For two molecules, IC50 for TGF-β1 (neutralization, Mv1Lu luciferase reporter cells), IC50 for TGF-β3 (neutralization, Mv1Lu luciferase reporter cells) and fold potency against TβRII-ED (neutralization, Mv1Lu luciferase reporter cells) results are on record in patent US20110236309A1.

The target of experiment [1] is TGF-β1 (Homo sapiens (Human)) (UniProt P01137).
Experiment [2] has as its target T1, TGF-β3 (Homo sapiens (Human)) (UniProt P10600).
T1 sequence: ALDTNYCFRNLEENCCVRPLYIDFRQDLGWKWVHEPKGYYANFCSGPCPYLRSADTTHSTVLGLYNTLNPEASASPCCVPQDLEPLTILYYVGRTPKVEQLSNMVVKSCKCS

In experiment [3] the target is TGF-β1 (Homo sapiens (Human)) (UniProt P01137). This is another data set of the same source.
Experiment [4] concerns the target T1, TGF-β3 (Homo sapiens (Human)). This is another data set of the same source.

Chain of TGF-β1 (Homo sapiens (Human)) (P01137 279-390 limits assumed): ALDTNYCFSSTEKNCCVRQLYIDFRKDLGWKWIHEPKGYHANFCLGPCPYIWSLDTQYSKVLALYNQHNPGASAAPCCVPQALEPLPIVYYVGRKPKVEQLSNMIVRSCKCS

B1: (TβRIIb)^2 homo-bivalent single-chain recombinant trap (designed binder, from a related filing)
chain: APMAEGGGQNHHHHHHHHGGSFNPRIPPHVQKSVNNDMIVTDNNGAVKFPQLCKFCDVRFSTCDNQKSCMSNCSITSICEKPQEVCVAVWRKNDENITLETVCHDPKLPYHDFILEDAASPKCIMKEKKKPGETFFMCSCSSDECNDNIIFSEEYNTSNPDIPPHVQKSDVEMEAQKDEIICPSCNRTAHPLRHINNDMIVTDNNGAVKFPQLCKFCDVRFSTCDNQKSCMSNCSITSICEKPQEVCVAVWRKNDENITLETVCHDPKLPYHDFILEDAASPKCIMKEKKKPGETFFMCSCSSDECNDNIIFSEEYNTSNPD
B1 gave an IC50 for TGF-β1 (neutralization, Mv1Lu luciferase reporter cells) in experiment [1] of 0.098 nM. The IC50 for TGF-β3 (neutralization, Mv1Lu luciferase reporter cells) in experiment [2] was determined as 0.045 nM. Moreover, the fold potency against TβRII-ED (neutralization, Mv1Lu luciferase reporter cells) in experiment [3] and in experiment [4] was 1000 fold each time.

B2: (TβRII)^2 homo-bivalent single-chain recombinant trap (designed binder, from a related filing)
chain: TIPPEQKLISEEDLLHVQKSVNNDMIVTDNNGAVKFPQLCKFCDVRFSTCDNQKSCMSNCSITSICEKPQEVCVAVWRKNDENITLETVCHDPKLPYHDFILEDAASPKCIMKEKKKPGETFFMCSCSSDECNDNIIFSEEYNTSNPDGGRHVQKSVNNDMIVTDNNGAVKFPQLCKFCDVRFSTCDNQKSCMSNCSITSICEKPQEVCVAVWRKNDENITLETVCHDPKLPYHDFILEDAASPKCIMKEKKKPGETFFMCSCSSDECNDNIIFSEEYNTSNPDHHHHHH
For the molecule B2, in experiment [1], the IC50 for TGF-β1 (neutralization, Mv1Lu luciferase reporter cells) was determined as 1.36 nM. In experiment [2], this molecule showed an IC50 for TGF-β3 (neutralization, Mv1Lu luciferase reporter cells) of 0.336 nM. Further, the fold potency against TβRII-ED (neutralization, Mv1Lu luciferase reporter cells) in experiment [3] and in experiment [4] was 100 fold throughout.
